Reference: the Human Domainome abundance scans (Beltran et al. 2025)
± gives the uncertainty stated by the source.

B1: RAS guanyl-releasing protein 1, residues 539 to 593; numbered along this chain, O95267 (parent)
chain: GFPHNFQETTYLKPTFCDNCAGFLWGVIKQGYRCKDCGMNCHKQCKDLVVFECKK

Variants of: B1
Experiment: abundance fitness (aPCA) (normalised: wild type 0, dead -1); higher = more abundant; growth selection in yeast, the domain comes from the species named
Conditions: Homo sapiens

Abundance fitness: each site, then its substitutions
V49: L -0.276 ± 0.095 | A 0.041 ± 0.086 | C -0.229 ± 0.09 | H 0.229 ± 0.1 | Q -0.071 ± 0.15 | R 0.094 ± 0.1 | G -0.122 ± 0.084 | E -0.001 ± 0.12 | I -0.319 ± 0.16 | M -0.446 ± 0.2 | N 0.035 ± 0.15 | F 0.002 ± 0.065 | T -0.055 ± 0.1 | W 0.038 ± 0.14 | P -0.174 ± 0.12
N40: Y -0.285 ± 0.055 | V -0.063 ± 0.044
C45: F -0.514 ± 0.056 | G -0.347 ± 0.063 | E 0.068 ± 0.074 | L -0.976 ± 0.13 | Y -0.575 ± 0.061 | A -0.527 ± 0.086 | H -0.446 ± 0.13 | N -0.647 ± 0.34 | W -0.772 ± 0.19 | S -0.486 ± 0.094 | D -0.036 ± 0.13 | I -0.554 ± 0.21 | V -0.621 ± 0.068 | M -0.57 ± 0.18 | R -0.773 ± 0.083 | K -0.643 ± 0.25 | P -0.977 ± 0.22
D47: Q 0.083 ± 0.12 | W -0.142 ± 0.082 | S 0.068 ± 0.082 | N -0.306 ± 0.14 | H -0.32 ± 0.17 | K -0.148 ± 0.096 | V -0.113 ± 0.083 | T 0.047 ± 0.09 | Y -0.105 ± 0.14 | R -0.177 ± 0.08 | I -0.211 ± 0.1 | C 0.212 ± 0.097 | A -0.056 ± 0.09 | M -0.204 ± 0.11 | P -0.054 ± 0.11 | L -0.141 ± 0.063 | F -0.143 ± 0.41 | G -0.05 ± 0.058
V50: P -0.157 ± 0.12 | R -0.11 ± 0.068 | L 0.07 ± 0.079 | A -0.064 ± 0.1 | M 0.043 ± 0.11 | H -0.214 ± 0.15 | N -0.228 ± 0.11 | I -0.541 ± 0.23 | G -0.076 ± 0.071 | C 0.042 ± 0.06 | K -0.383 ± 0.15 | E 0.037 ± 0.061 | D -0.208 ± 0.13 | S -0.03 ± 0.057 | Q 0.06 ± 0.1
K46: C 0.129 ± 0.092 | Y -0.052 ± 0.092 | G -0.018 ± 0.076 | W -0.032 ± 0.053 | A -0.09 ± 0.12 | P -0.147 ± 0.084 | N -0.337 ± 0.17 | D -0.541 ± 0.35 | T -0.069 ± 0.079 | R -0.01 ± 0.066 | M 0.208 ± 0.088 | F -0.228 ± 0.14 | S -0.078 ± 0.069 | H 0.096 ± 0.14 | V -0.251 ± 0.11 | L -0.007 ± 0.077 | E -0.013 ± 0.087
Q44: L -0.057 ± 0.087 | H 0.083 ± 0.089 | E 0.131 ± 0.058 | R 0.047 ± 0.065 | Y 0.128 ± 0.052 | M -0.001 ± 0.12 | N -0.238 ± 0.35 | T -0.226 ± 0.13 | W 0.003 ± 0.087 | P -0.119 ± 0.079 | D 0.125 ± 0.12 | V 0.079 ± 0.11 | S 0.149 ± 0.089 | F 0.072 ± 0.14 | I -0.294 ± 0.28 | K 0.043 ± 0.099 | C 0.011 ± 0.12 | A 0.011 ± 0.074
L48: F 0.018 ± 0.11 | S 0.058 ± 0.089 | I -0.378 ± 0.12 | R -0.136 ± 0.079 | K 0.011 ± 0.052 | W -0.052 ± 0.053 | P -0.15 ± 0.17 | C 0.069 ± 0.12 | Q 0.031 ± 0.09 | M 0.055 ± 0.1 | T -0.047 ± 0.078 | Y 0.007 ± 0.049 | E -0.061 ± 0.07 | N -0.295 ± 0.15 | G 0.074 ± 0.061 | A 0.023 ± 0.048 | V -0.049 ± 0.081 | H -0.209 ± 0.21
C41: K -0.139 ± 0.084 | W -0.191 ± 0.073 | L -0.023 ± 0.061 | H -0.662 ± 0.32 | D -0.758 ± 0.33 | E -0.414 ± 0.11 | I -0.012 ± 0.091 | Y 0.02 ± 0.1 | V 0.068 ± 0.082 | T -0.035 ± 0.092 | Q -0.484 ± 0.17 | N -0.47 ± 0.24 | M -0.281 ± 0.15 | F -0.331 ± 0.095 | A -0.016 ± 0.072
H42: I -0.939 ± 0.16 | A -0.841 ± 0.095 | C -0.416 ± 0.13 | N -0.815 ± 0.28 | Y -0.892 ± 0.38 | L -1.09 ± 0.1 | Q -0.862 ± 0.33 | G -0.249 ± 0.082 | P -0.859 ± 0.16 | K -0.849 ± 0.077 | S -0.319 ± 0.046 | F -0.981 ± 0.23 | M -0.76 ± 0.15 | V -1.09 ± 0.35 | T -0.921 ± 0.22 | W -0.286 ± 0.1 | R -0.916 ± 0.11
K43: D 0.011 ± 0.093 | R -0.094 ± 0.083 | W -0.481 ± 0.16 | G -0.074 ± 0.052 | T -0.024 ± 0.1 | P -0.146 ± 0.09 | F -0.24 ± 0.21 | I 0.232 ± 0.1 | L -0.066 ± 0.089 | M -0.031 ± 0.093 | S -0.006 ± 0.061 | A -0.049 ± 0.081 | C -0.053 ± 0.066 | N -0.417 ± 0.18 | E -0.002 ± 0.068
